Here are results for two substances from article PMC9926112.

For this experiment, the target named is GST-fused N-terminal fragment of human β-spectrin (GST-hNβSp) (human) (UniProt P11277). As to the kind of experiment: SPR; Biacore X100; GST-hNβSp (500 nM) captured on a CM5 chip by anti-GST antibody; h4.1R recombinants (GST cleaved) 150-1000 nM as analyte; PBS, 25 °C; regeneration in 10 mM Glycine-Cl pH 2.1.
Chain of UniProt P11277 (P11277 1-527): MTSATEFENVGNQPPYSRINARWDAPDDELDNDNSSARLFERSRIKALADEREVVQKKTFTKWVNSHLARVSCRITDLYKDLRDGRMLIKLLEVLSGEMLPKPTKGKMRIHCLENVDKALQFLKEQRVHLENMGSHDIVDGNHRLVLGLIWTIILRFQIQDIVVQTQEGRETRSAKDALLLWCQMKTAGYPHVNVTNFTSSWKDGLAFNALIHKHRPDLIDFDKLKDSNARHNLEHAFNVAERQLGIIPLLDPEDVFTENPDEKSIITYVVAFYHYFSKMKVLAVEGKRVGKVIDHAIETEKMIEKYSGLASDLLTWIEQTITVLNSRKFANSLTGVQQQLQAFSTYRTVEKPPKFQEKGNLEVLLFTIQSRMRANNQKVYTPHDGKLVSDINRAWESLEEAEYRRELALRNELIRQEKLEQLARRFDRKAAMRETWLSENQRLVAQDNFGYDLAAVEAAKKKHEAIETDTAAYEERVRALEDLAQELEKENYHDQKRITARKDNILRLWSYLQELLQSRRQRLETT

As to “human protein 4.1R, wild type (h4.1R WT), cleaved from GST (natural protein)”, the equilibrium dissociation constant (Kd) is 633 nM and the kon amounted to 5040 M⁻¹ s⁻¹.
On the same counts, the results for “human 4.1R with the PE and e14 sequences of alpaca 4.1R (h4.1R[PE14]), cleaved from GST” are 121 nM and 55100 M⁻¹ s⁻¹.
